Source: paper PMC5842915 (Biochemistry, 2017)
“And” between values parts separate entries of the source, which are not always exact repeats. Identical values can stand only once. Like-named read-outs stand apart in the source and are kept apart here.

What was measured:
Bcl-2 (Homo sapiens) [1] = target: Bcl-2 (Homo sapiens) (UniProt P10415); conditions: cited from earlier work
[2] = target: BECN1 CC CC (Homo sapiens) (UniProt Q14457); conditions: cited from earlier work
Bcl-2 (Homo sapiens) [3] = target: Bcl-2 (Homo sapiens) (UniProt P10415); conditions: cited from earlier work; remark: listed apart in the source
[4] = target: BECN^1-265 (BECN1 residues 1-265, BARA-less construct) (human) (UniProt Q14457); experiment: AUC
[5] = target: V250A/M254A/L261A mutant of full-length BECN1 (human) (UniProt Q14457); experiment: AUC
[6] = target: human Bcl-2 (residues 1-218) (human, UniProt P10415 1-218); experiment: ITC
human Bcl-2 (residues 1-218), sequence (P10415 1-218): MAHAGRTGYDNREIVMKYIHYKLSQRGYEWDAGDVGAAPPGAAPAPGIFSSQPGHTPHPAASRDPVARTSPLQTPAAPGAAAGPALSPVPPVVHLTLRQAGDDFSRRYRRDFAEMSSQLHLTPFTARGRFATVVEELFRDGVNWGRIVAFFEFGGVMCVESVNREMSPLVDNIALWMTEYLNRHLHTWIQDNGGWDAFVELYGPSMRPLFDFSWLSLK

Bcl-2 (Homo sapiens), sequence (P10415 whole entry, the tested form may be a part): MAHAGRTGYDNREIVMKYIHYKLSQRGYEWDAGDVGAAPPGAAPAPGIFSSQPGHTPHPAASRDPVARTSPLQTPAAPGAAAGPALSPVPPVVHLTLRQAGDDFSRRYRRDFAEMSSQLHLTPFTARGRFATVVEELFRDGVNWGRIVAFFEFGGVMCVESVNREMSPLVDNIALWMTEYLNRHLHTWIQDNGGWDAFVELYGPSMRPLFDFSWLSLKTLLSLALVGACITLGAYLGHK

For “BECN1 BH3 peptide 105-130 (from UniProt Q14457)”, the Kd (Bcl-2 (Homo sapiens) [1]) is given as 8 µM.

For BECN1 CC CC (from UniProt Q14457), the Kd [2] is given as 48 µM and 45 µM.

For BECN1 IDR 1-135 (from UniProt Q14457), the Kd (Bcl-2 (Homo sapiens) [3]) is given as 8.6 µM.

“BECN^1-265 (BECN1 residues 1-265, BARA-less construct) (from UniProt Q14457 1-265) (domain or fragment)” showed a Kd [4] of 1.35 µM.

Work on “V250A/M254A/L261A mutant of full-length BECN1 (from UniProt Q14457 1-450) (natural protein)” yielded a Kd [5] of 1.86 µM.

B1: BECN1 BH3 peptide (residues 97-126) (peptide)
peptide: FTLIGEASDGGTMENLSRRLKVTGDLFDIM
B1 gave a Kd [6] of 9.6 µM.
